Changes are numbered by the printed parent chain. Names and notes keep the numbering of the source.
B1: S364L: additional mutation in SEQ ID No: 17 (protein)
chain: MASSRTGAGAGGRVVVFPFPFQGHFNPVMRLARALHARGLAITVFHSGALDPADYPADYRFVPVTVEADPKLLASEDIAAIVTTLNASCDAPFRARLSALLAAEGRDSVRCVFTDVVWNAVLTASSDLGVPALGMMTASAASLRDYMAYRTLIDKGYLPVKEERKEDPVPELPPYLVKDLLRVDTSDLEEFAELLARTVTAARRASGLIFNTFPLIETDTLAEIHKALSVPVFAVAPLNKLVPTATASLHGVVQADRGCLQWLDTQQPGSVLYVSFGSFAAMDPHEFVELAWGLADSKRPFVWVVRPNLIRGFESGALPDGVEDEVRGRGIVVKWAPQEEVLAHPAVGGFLTHNGWNSTVEAILEGVPMVCCPRHGDQFGNMRYVCDVWKVGTELVGEQLERGQVKAAIDRLFGTKEGEEIKERMKEFKIAAAKGIGIGVDVDETASPRTDLTDLVDLIKSF
modifications: Mutated Zea mays Bx9 protein sequence
B2: R449C: additional mutation in SEQ ID No: 17 (protein)
chain: B1 chain with L364S, R449C
modifications: Mutated Zea mays Bx9 protein sequence
B3: A431P: additional mutation in SEQ ID No: 17 (protein)
chain: B1 chain with L364S, A431P
modifications: Mutated Zea mays Bx9 protein sequence
B4: R424P: additional mutation in SEQ ID No: 17 (protein)
chain: B1 chain with L364S, R424P
modifications: Mutated Zea mays Bx9 protein sequence
B5: M425F: additional mutation in SEQ ID No: 17 (protein)
chain: B1 chain with L364S, M425F
modifications: Mutated Zea mays Bx9 protein sequence
B6: G418Y: additional mutation in SEQ ID No: 17 (protein)
chain: B1 chain with L364S, G418Y
modifications: Mutated Zea mays Bx9 protein sequence
B7: F213W: additional mutation in SEQ ID No: 17 (protein)
chain: B1 chain with F213W, L364S
modifications: Mutated Zea mays Bx9 protein sequence
B8: G366H: additional mutation in SEQ ID No: 17 (protein)
chain: B1 chain with L364S, G366H
modifications: Mutated Zea mays Bx9 protein sequence
B9: I430P: additional mutation in SEQ ID No: 17 (protein)
chain: B1 chain with L364S, I430P
modifications: Mutated Zea mays Bx9 protein sequence
B10: K429S: additional mutation in SEQ ID No: 17 (protein)
chain: B1 chain with L364S, K429S
modifications: Mutated Zea mays Bx9 protein sequence
B11: P214D: additional mutation in SEQ ID No: 17 (protein)
chain: B1 chain with P214D, L364S
modifications: Mutated Zea mays Bx9 protein sequence
B12: V360M: additional mutation in SEQ ID No: 17 (protein)
chain: B1 chain with V360M, L364S
modifications: Mutated Zea mays Bx9 protein sequence
B13: H375Y: additional mutation in SEQ ID No: 17 (protein)
chain: B1 chain with L364S, H375Y
modifications: Mutated Zea mays Bx9 protein sequence

Experiment: UDP luminescence plate assay of E. coli extracts, mutants within SEQ ID No: 17, 2 mM metribuzin
Assay type: biochemical, Zea mays
Details: 2 mM metribuzin vs DMSO control, same mutant
Experimental: Activities observed with metribuzin were generally lower in magnitude than seen with herbicide V in the previous examples. For example, in one plate assay run with 2 mM metribuzin using 5 ul of diluted extract of plate-grown BL21DE3 cells expressing w/t bx9 and assayed for 40 minutes (as described in Example 2) the UDP-Glo luminescence signal was ˜3.4 E6 as compared with ˜2.3E6 in the DMSO control and ˜1.7E6 in the H24A null mutant control. […] It was therefore important to assess potential improvements in the metribuzin activity of the various mutants relative to the wild type bx9 enzyme based not only on the H24A null activity control but also based upon controls with DMSO in place of metribuzin acceptor substrate. In some plate assays (using more dilute extracts) the metribuzin signals from the w/t enzyme was the same or barely greater than the DMSO control. Additionally, some mutations gave an increase in the ‘background’ UDP-glucose hydrolysis activity with just DMSO present that was the same or similar to the magnitude of the increase in signal seen with metribuzin. In these instances it is therefore uncertain from just this UDP-Glo assay method whether the specific metribuzin signal (glucosylation of metribuzin) is improved or not i.e. the signal seen with metribuzin may or may not all or to a large part be attributable to increased background hydrolysis). […] Thus the ratio of the metribuzin to DMSO signal as well as the increase in signal relative to the w/t bx9 is used to help distinguish those mutations most likely to offer the highest activity to metribuzin. A follow up assay monitored by, for example, LC MS is one method to distinguish these cases more quantitatively. The tables below summarise the results from two different sets of luminescence plate assays to detect single mutations giving improvements in the magnitude of the signal with metribuzin relative to w/t bx9 and/or the apparent specificity for metribuzin as measured by the deviation of the ratio of metribuzin to DMSO control activity from the bx9 w/t value of around unity.
A further separate screen was carried out to explore a library of additional mutations at various positions within the context of SEQ ID No: 17 for improved metribuzin activity. These were assayed, assessed and scored as above. […] These were S75K (2.5)(1.25), A236G (4.0)(1.15), A433V (3.3)(9.0) and R449C (1.8)(1.2).
A yet further and more comprehensive screen was carried out to explore saturation mutagenesis at all remaining amino acid positions within the context of SEQ ID No:17 for improved metribuzin activity. Again these were assayed, assessed and scored as above and the results of (out of the thousands screened) of the subset that were of interest are summarized in Table 16.
For B1, the “RATIO of the metribuzin signal to the DMSO signal” value was 1.19.

Same assay, conditions: 2 mM metribuzin; additional mutation in SEQ ID No: 17
In the case of B2, the “metribuzin signal relative to the SEQ ID No:17 control (first parentheses)” value is reported as 1.8 and the “ratio of metribuzin to DMSO signal (second parentheses)” value (“ratio of metribuzin to DMSO signal” below) is reported as 1.2.
With B3 the “metribuzin signal relative to the SEQ ID No:17 control (first parentheses)” value was 2.8 and the “ratio of metribuzin to DMSO signal” value was 1.32.
For B4, the “metribuzin signal relative to the SEQ ID No:17 control (first parentheses)” value was 2.5 and the “ratio of metribuzin to DMSO signal” value was 1.14.
In the case of B5, the “metribuzin signal relative to the SEQ ID No:17 control (first parentheses)” value is reported as 4.1 and the “ratio of metribuzin to DMSO signal” value is reported as 1.96.
In the case of B6, the “metribuzin signal relative to the SEQ ID No:17 control (first parentheses)” value is reported as 3.1 and the “ratio of metribuzin to DMSO signal” value is reported as 1.47.
For B7, the “metribuzin signal relative to the SEQ ID No:17 control (first parentheses)” value was 4.7 and the “ratio of metribuzin to DMSO signal” value was 1.24.
For B8, the “metribuzin signal relative to the SEQ ID No:17 control (first parentheses)” value was 3.4 and the “ratio of metribuzin to DMSO signal” value was 1.34.
In the case of B9, the “metribuzin signal relative to the SEQ ID No:17 control (first parentheses)” value is reported as 2.8 and the “ratio of metribuzin to DMSO signal” value is reported as 1.34.
For B10, the “metribuzin signal relative to the SEQ ID No:17 control (first parentheses)” value was 2.4 and the “ratio of metribuzin to DMSO signal” value was 1.30.
With B11 the “metribuzin signal relative to the SEQ ID No:17 control (first parentheses)” value was 3.7 and the “ratio of metribuzin to DMSO signal” value was 1.34.
With B1 the “metribuzin signal relative to the SEQ ID No:17 control (first parentheses)” value was 3.3 and the “ratio of metribuzin to DMSO signal” value was 1.20.
In the case of B12, the “metribuzin signal relative to the SEQ ID No:17 control (first parentheses)” value is reported as 2.0 and the “ratio of metribuzin to DMSO signal” value is reported as 1.28.
With B13 the “metribuzin signal relative to the SEQ ID No:17 control (first parentheses)” value was 3.8 and the “ratio of metribuzin to DMSO signal” value was 2.33.

Same assay, conditions: 2 mM metribuzin; relative to SEQ ID No: 17 control
In the case of B3, the “SIGNAL: metribuzin signal of mutant divided by the signal of the SEQ ID No. 17 control” value is reported as 2.81.
With B4 the “SIGNAL: metribuzin signal of mutant divided by the signal of the SEQ ID No. 17 control” value was 2.51.
For B5, the “SIGNAL: metribuzin signal of mutant divided by the signal of the SEQ ID No. 17 control” value was 4.13.
In the case of B6, the “SIGNAL: metribuzin signal of mutant divided by the signal of the SEQ ID No. 17 control” value is reported as 3.11.
For B7, the “SIGNAL: metribuzin signal of mutant divided by the signal of the SEQ ID No. 17 control” value was 4.75.
For B8, the “SIGNAL: metribuzin signal of mutant divided by the signal of the SEQ ID No. 17 control” value was 3.38.
With B9 the “SIGNAL: metribuzin signal of mutant divided by the signal of the SEQ ID No. 17 control” value was 2.82.
In the case of B10, the “SIGNAL: metribuzin signal of mutant divided by the signal of the SEQ ID No. 17 control” value is reported as 2.38.
For B11, the “SIGNAL: metribuzin signal of mutant divided by the signal of the SEQ ID No. 17 control” value was 3.66.
In the case of B1, the “SIGNAL: metribuzin signal of mutant divided by the signal of the SEQ ID No. 17 control” value is reported as 3.29.
In the case of B12, the “SIGNAL: metribuzin signal of mutant divided by the signal of the SEQ ID No. 17 control” value is reported as 2.02.
For B13, the “SIGNAL: metribuzin signal of mutant divided by the signal of the SEQ ID No. 17 control” value was 3.80.

Same assay, conditions: additional mutations within SEQ ID No: 17; DMSO in place of metribuzin
With B3 the “luminescence signal in the DMSO control” value was 3.87E+06.
In the case of B4, the “luminescence signal in the DMSO control” value is reported as 4.02E+06.
For B5, the “luminescence signal in the DMSO control” value was 3.84E+06.
For B6, the “luminescence signal in the DMSO control” value was 3.86E+06.
With B7 the “luminescence signal in the DMSO control” value was 6.96E+06.
With B8 the “luminescence signal in the DMSO control” value was 4.62E+06.
In the case of B9, the “luminescence signal in the DMSO control” value is reported as 3.83E+06.
In the case of B10, the “luminescence signal in the DMSO control” value is reported as 3.34E+06.
For B11, the “luminescence signal in the DMSO control” value was 4.99E+06.
With B1 the “luminescence signal in the DMSO control” value was 5.04E+06.
For B12, the “luminescence signal in the DMSO control” value was 2.88E+06.
With B13 the “luminescence signal in the DMSO control” value was 2.97E+06.

Same assay, conditions: additional mutations within SEQ ID No: 17; control = SEQ ID No: 17; 2 mM metribuzin
For B3, the “luminescence signal observed with 2 mM metribuzin” value (“luminescence signal observed” below) was 5.12E+06.
For B4, the “luminescence signal observed” value was 4.58E+06.
In the case of B5, the “luminescence signal observed” value is reported as 7.53E+06.
For B6, the “luminescence signal observed” value was 5.67E+06.
For B7, the “luminescence signal observed” value was 8.66E+06.
In the case of B8, the “luminescence signal observed” value is reported as 6.17E+06.
With B9 the “luminescence signal observed” value was 5.15E+06.
For B10, the “luminescence signal observed” value was 4.34E+06.
With B11 the “luminescence signal observed” value was 6.67E+06.
With B1 the “luminescence signal observed” value was 6.00E+06.
With B12 the “luminescence signal observed” value was 3.68E+06.
With B13 the “luminescence signal observed” value was 6.93E+06.

From patent US20200270588A1, “GLUCOSYL TRANSFERASE POLYPEPTIDES AND METHODS OF USE” (Syngenta Participations AG, priority 2017, published 2020)
